Assay results as given in the DeepSol protein solubility set.

experiment: soluble on expression in E. coli; label from the status in PepcDB or PDB records

Sequence	soluble on expression in E. coli
MGSDKIHHHHHHMTTIFIEKATILDAEKLTEIMTRTFDEEEKRWLCGQGDVIDYNIQPPGYSSVEMMRYSIEELDCYKVIMDGKIIGGIIVTISGKSYGRIDRIFVEPVYQGKGIGSYVIKLIEEEYPSIRIWDLETSSRQLNNHHFYKKMGYETIFKSEDEYCYVKRITVESAEENLIKNKDMKNSQYENCNLANTEYYQVNLKNSSFVGSNMMNMKMSNCNVRQSNFRNINFRNSSYADLNLSGSKFNFVTLGGVQFKDTSLGEDKDPISFNRCDLEGSTISNSNLKNMDIENCDITGMKINGIPIEKLLALYNKVKS	not soluble
MGSDKIHHHHHHMTTILQLSDLHIGPHNDEKDQKTYDLIHHMMTHYQPDITVLTGDQIWSEGVIDSGRVYKKLMEYLNRYDTQIATTFGNHDTEGHLKRSDLRAIEDQYSTNYVQKNHSLIVDDKEAYTIEVVNNDTVTHVLYVIDGGDYNPFGIGDYDFIRPEHVNWLRETHQAYQTQFQHNFQHNLLFTHIPLQEYREVENIGEYHGIFNEPIACSKINSGLFSQMLLNGDIEGMFCGHDHDNDFTINLYGIRLSFGRIGGYNTYGDLQRGARLIELQPDAIYKSKVLEFDDRF	not soluble
MGSDKIHHHHHHMTTLDALRVFVEVVRAGSFTAAARRLSISKSLASKRVAALEDELSVNLLNRSTRSLRLTEAGQIYYEHGLRVIEELQSAEAQVQSVTSQPRGQLKVSAQVSFGFMYLAAPTTAFMRRYPDVSVEILLEDQRFEPIDDSVDLAIRMGPLPPSSLVSRPLCKVVYGLYAAPDYLARAGRPLHPRDIADYDTVFYGNYDLGAHWRFSLNGQPLDIEPNSRLVINNLLGVVEAAKSGFGLAYLPTFAARAAVEEGQLIPLLQPYWNEHGSMLVLFRSRKYLPDKTRAYLDFITDWFREHLAL	not soluble
MGSDKIHHHHHHMTTTTKKTAERLIKKYPNRRLYDTETSTYITLTDVKQLVLDQEDFKVIDAKSNEDLTRAILLQIILEEESGGLPMFSSSMLSQIIRFYGHAMQGMMGTYLEKNIQAFIDIQAKLADQSKNLYEGKAMNPEVWSQFMNMQAPMMQGMMTSYIEQSKNMFVQMQEQMQNQAKSMFATFPFTPGGAVNVAGGGNAPASPQGNPQGNPEPEKK	not soluble
MGSDKIHHHHHHMTTTYPDFLGNSSLQTDTEHWEMEGGAQEVSVTYVLDTSVLLSDPLSLTRFAEHDVVLPIVVITELEAKRHHPDLGFFARQALRMLDELREIHGDLSKPLPIGDEGGHIHVELNHQNTGSLPVGFRLGDNDTRILAVAKNLQEEGHNVVLVSKDLPMRIKASASGIAAQEYRAALARDRGYTGMTHANITDDQLSELYDTGEVRIEELEKLPVNHGFTLKSNSGSALGRMNSDKIIELVPGDQQVFGISGRSAEQRVAIDLLNDDAVGIVSIGGPAGTGKSALALCAGLEAVMERRIQRKIIVFRPLFAVGGQELGYLPGDQEEKMGPWAQAVFDTLSSMVSQNIIDEALSRGLIEVLPLTHIRGRSLHDAFVIVDEAQSLERNVLLTMLSRIGQNSRVVLTHDVAQRDNLRVGRYDGIVSVVEALKDHELFGHITLQRSERSRIAELVTQVLDAPSL	not soluble
MGSDKIHHHHHHMTVAQLLIPQMYSSKSTGEAVGRHPLNFYESPSWFTTELLRHVRLSGVVGEPCVGMGAIASLLSVWPYTKQMWTNDIDPHKSANYQMDATLSESWAKFPDCDWICTNPPYSEFAAPIIKNAYCKAHVGVAAFLLTSFLEPCDDRADFLQQHPPSLVLIMPRFCFRKDKRGTRWATDNVTISCFVWDKRATGQQIIVRPKSAIAGFYKNPEQAISQERAEKIVRAIAKGEL	not soluble
MGSDKIHHHHHHMTVIDLSALDPPDLVETLDFEAAYQYKLQHFKSIYPDWTAALESDPVVKLIELAAYDEVRFRARVNDAGRAVLLAYSTGADLEHLAVLWNLQRETVDPGDPEAHPPVPATRERDERLRLRTQMGIERSSTAGPFGAYRSLAMDASPDVADVRVDRPEAGVVRVVVKSYSNGGVASAALLDTVRRALSPEDRRPLNDSLLVVAARPVNYAIVADVYIGRGPDPGVVLAARRQDLDIAVAAGEALRVGMPRSAVTGALHPKASGVVRVDLKLPAADVVCAIDQFARCTSIVLNPKVADDD	not soluble
MGSDKIHHHHHHMTVLILTNPFDITADDVILRLTERGVPVVRLDPADFPQQVVLHSEIGGNGWTGTLTTPHRILDLSTVTGIWYRRPRKFRLPAQMSQAEYEFAATEARRGFGGIINSLTGWINHPSAIGRAEYKPYQLHHAVQAGLNVPRTLITNDPKQAKGWCARVGDVVYKPLSAPSWLENGDTYVVFTTPITPDQWGDPAIGRTAHMFQQRLDKEFEVRLTMVDGKAFPAAIHAHSDAARIDWRSDYDALTYSIPTVPQRVLTGARDLLRRLHLRYAALDFIVSPDGRWHFLEVNPNGQYGWIEEHTGQPISDAIADALTRKEN	not soluble
MGSDKIHHHHHHMVAVPQAHPLSVAEYLQFEAASEIKHEYRAGEVYAMADITDVHNTIVGNWVALIRSHVRGSSDRVYCSAMQVWLQQANCIYYPDLLVTCDPRDQETVNYKRFPKLIVEVLSPSTEAFDRGDKFADYQTLETLEEYVLISTSRQRVDCFRRSLEGVWTLQFYLPNAEVLPLRSIGLEVRLSDLYEDVTLPAPPSIPESLEESR	not soluble
MGSDKIHHHHHHMVDCDRIDRLIAAVPPALALRAGLDLGIFTRLGGDAATADSLGAALKVEPDRLSRLLYALASIDLLEVKDGQFRNGAEASAFLDASKPTYRGGDHALLRELWGADLLTAESLRQNRPAALHDFSEAGPEAAAAFSRMLAPGGVIFGRHLAREIDLSAIGSVIDIGGGAGTILVGLRERRRQIAATLMELPTVAAVAPAILSEYGADDVIVEEGDITVAPSIGRHDLAILKAVVQVLPPDQARNAILNAARCLTPGGEIAIAGWGVVDDDRLGPSEGVFLNLTFLNLYRHGESYTEGQYRAWMTEAGFRNISRSRLTDGTALFRGRLTD	not soluble
MGSDKIHHHHHHMVDVKRNIFLILDDRELTSEEVRSLVGTRRYSEISLKRRSLLEHLRAALPAWAQTRLVHIKDNNDVVALRNVLESCGEQSPALVIAGRAGFLQPERLTQLIERLPYAEEDFTDRLYRPLLVYLKSVHDLHSCWQQFEAEPLHLWPKAWQDCQRLESLEPLDLARIRDFLTFTGGATATRHFNEVLIDNYYYTKRSSDKQKMLAEYSFYGLAPESMRPWLIQPFEFREEGGGASYKMLRYFLADAALQWVHGAFDRDTFMAFIERLLFFIAERPRKACAREESAAVARDMFVTKVSARIEAFLAMEEGRRINALAASASPMLDVQAMLKRYLALYQRHERAFAFDYMVVGHGDPCFSNVLYDQQRYLLKLIDPKGAATEADLWTNPLYDLCKISHSVLGDYDFINNGLYRVGFTDANALKLAFSHRNHDDLKPIFSSLVGKMGMDYRIMRLGEASLFLSMLPLHIDYPNKILAFMLKAHEILREVEGEARV	not soluble
MGSDKIHHHHHHMVKDKNDVGPKTVAILGAGGKMGARITRKIHDSAHHLAAIEIAPEGRDRLQGMGIPLTDGDGWIDEADVVVLALPDNIIEKVAEDIVPRVRPGTIVLILDAAAPYAGVMPERADITYFIGHPCHPPLFNDETDPAARTDYHGGIAKQAIVCALMQGPEEHYAIGADICETMWSPVTRTHRVTTEQLAILEPGLSEMVAMPFVETMVHAVDECADRYGIDRQAALDFMIGHLNVEIAMWFGYSPKVPSDAALRLMEFAKDIVVKEDWREALNPAKVKQAAELIAGK	not soluble
MGSDKIHHHHHHMVKRMHCNINLKYGVIMKKDCYTLRISLKPGFINAEQLKAIAYVIENFGDNKAHITTRQGIEFKISPEHLEEVEKILNNVGLNLGSTGNRVRQVVSCIGLECYNAIGDSVSLARRIHEEFEGVWVPRKVKINVSGCPNSCTFHRFCDIGICYRYKITINKEICTNCGKCKDFCDLNAIDWERKIIKDNCTGEGKCTGLCNAFKAERVISIFVGGKGGRIYKEGKHLIDLKNEDDVLFVIDELISLYAKFGKGRMADFVENYGIENLRNNIKELIK	not soluble
MGSDKIHHHHHHMVKSANLLHVSQPAVTKTVRELEEILGVSLFEREGRGIRITRYGEVFLRHAGATLAALRHAVDSVSQEAAKAGPPVRVGALPTVATRIMPQAMTAFLAENTGSPIKIVTGDNSVLLEQLRIGELDLVVGRLAAPEKMAGFSFEHLYSEPVVFVVRAGHPLLTGETAPFERMRDFPVLMPTRNSIIRPLVDYFLIANGVATLPNQIETVSDSFGRAFLKISDAVWVISEGVVAGDIAEGTICALPIDCSPTRGPVGLTVRADAMATLPQSLLMQAIRDAAAAIMP	not soluble
MGSDKIHHHHHHMVQREKNVVNEQEIELIIGNSNSNFSGVTSTMLQVLSHEQSLINLRVMGKHHLPDESLSISFWQVANLSTKPLPKGKFRIFHARRVDEMIQALLLKYVFRVKLKIVFSSAAQRYRSGFTLWLTDRMDAVLAMCKASASYLHRKPDAIIYHGVKTDIYLPATDKSKAWQSLGLLPENSAKGKKGIAILGRVRKQKGVHLFVESCIDILKDRPDYTAVIVGSISSSNESFVNELQSKIDQAGLTERIVFAGEQNFADIPKIFSSLSLVVALSENEGFGLTILEAMSSGAAVLASEAGAWPEVVRQGVDGYVVPINDLDAVTEKMSLLLADEEKLMQMGRDGRERVLEHYSVEREAKELVTFFRSLM	not soluble
MGSDKIHHHHHHMVRDIDKTTSLHLNNEAQFLCFRLDAEKDAQLYGMNIFKIREIIHYDGEVTEILGGSDGVMLGFLSVRGESIPLVDVKRWLHYNANDPSRDLKECSVKDDHNLVIVCHFSNHSIALKVLKIERIIHKNWTEISAGDKQGINEEGKLSAITRFDEERVVQILDVEKMISDVFPSLKDLDDLTLRCIEAIQSQKLILIAEDSLSALKTLEKIVQTLELRYLAFPNGRELLDYLYEKEHYQQVGVVITDLEMPNISGFEVLKTIKADHRTEHLPVIINSSMSSDSNRQLAQSLEADGFVVKSNILEIHEMLKKTLS	not soluble
MGSDKIHHHHHHMVSRSPFESFQWKSDIFNCESTDIDNFYLLLEQEMTRLGMVEKNLGEVGKYKVSLYQSPAAKSGLPSLLISAGFHGEESAGPWGLLHFLSEASADLFERVNLSLLPLVNPTGFSRGHRFNKYGENPNRGFVFENGKPKANEHTSVEGKLLLDHAQLLIAACRDGILTCHEDVLSREAYVYSFEPSQVPGRFSLDLRDTLGGYFPIAVDGEIDACPVKDGLIFNHFDTSFEACLVRSGARVGACTETPALQNFDQRVLANSAAMTHFLALCAPLCD	not soluble
MGSDKIHHHHHHMVSWVRGATKSLLGCSENSRRTKGNDMAVIFKGIPSIGNGLTDDTVLWRYLDTAKFLDLLHNRTLFFCRGDRFADKYEGAFTESIKHAIEEAFRKNEINSSVAEFKTRLRERVFVNCWHQSRDDSMAMWSLYGKSSAAVAITTTVGQLRDAIKLAKLPYAINIAKVEYVKHWRDPQLVFKPYSNVFAYKLKAYDYEKEVRVIIDRFHENEDISALPDGMSAAIPLETLLRSIVVCPEAAPWFVELVGDVVHKYGVSAPVNRSKLAFDPK	not soluble
MGSDKIHHHHHHMVVLHSKGGFFLEILKVVDLKKHYGDVKAVDGISFTVERGTVFSFLGPNGAGKTTTVEILEGLRKKDSGEIYYFGERKDVLDRETKRKIGVCLQKSAFFENLTVWETLKLFRGLYGTGLDLKEVMGLFSLENIEKKMVKTLSGGQLQRLAVAVAFINDPEIVFLDEPTTGLDPQARRQIWDTIEHFKNLGKTIFLTTHYMEEAERLSDHVCIIDHGKIIAEGTPSSLISSSGLKTVVEFDCDQDVNVRYLEKKENHYVVETDAPEELIKDLLKNWNVSNIVIRKPNLEDVFLKLTGRDLRE	not soluble
